This is an account of results in patent US20150224177A1 (priority 2014, published 2015).

Entries after “also recorded” stand apart in the source; their conditions may differ. Where only a bound is given, the exact number is not on record here.

One test relates to B. pseudomallei isolates. Nature of the test: microbe, parasite or virus in culture. The test is classed as cell-based, Burkholderia pseudomallei.
Test [1] has as its system B. pseudomallei strains 1026b and MSHR 305. It counts as cell-based, Burkholderia pseudomallei.
The next test has as its system Bacillus anthracis. It counts as cell-based.
The next test deals with Burkholderia mallei. The test is described as follows: microbe, parasite or virus in culture. It counts as cell-based.
Another test relates to Yersinia pestis. The test is described as follows: microbe, parasite or virus in culture. It counts as cell-based.

B1: bovine lactoferrin (protein, UniProt P24627 20-708, looked up)
Lactotransferrin: APRKNVRWCTISQPEWFKCRRWQWRMKKLGAPSITCVRRAFALECIRAIAEKKADAVTLDGGMVFEAGRDPYKLRPVAAEIYGTKESPQTHYYAVAVVKKGSNFQLDQLQGRKSCHTGLGRSAGWIIPMGILRPYLSWTESLEPLQGAVAKFFSASCVPCIDRQAYPNLCQLCKGEGENQCACSSREPYFGYSGAFKCLQDGAGDVAFVKETTVFENLPEKADRDQYELLCLNNSRAPVDAFKECHLAQVPSHAVVARSVDGKEDLIWKLLSKAQEKFGKNKSRSFQLFGSPPGQRDLLFKDSALGFLRIPSKVDSALYLGSRYLTTLKNLRETAEEVKARYTRVVWCAVGPEEQKKCQQWSQQSGQNVTCATASTTDDCIVLVLKGEADALNLDGGYIYTAGKCGLVPVLAENRKSSKHSSLDCVLRPTEGYLAVAVVKKANEGLTWNSLKDKKSCHTAVDRTAGWNIPMGLIVNQTGSCAFDEFFSQSCAPGADPKSRLCALCAGDDQGLDKCVPNSKEKYYGYTGAFRCLAEDVGDVAFVKNDTVWENTNGESTADWAKNLNREDFRLLCLDGTRKPVTEAQSCHLAVAPNHAVVSRSDRAAHVKQVLLHQQALFGKNGKNCPDKFCLFKSETKNLLFNDNTECLAKLGGRPTYEEYLGTEYVTAIANLKKCSTSPLLEACAFLTR
As to B1, in the test with B. pseudomallei isolates, the “Minimal Inhibitory Concentration” value was >91,429 μg/mL; the “concentration of bLF at which all isolates were capable of growth (highest concentration tested)” value is on record as above 91.429 mg/mL; the “inhibition of growth, overall result in words” value is listed as “not directly inhibited”. Further, in test [1], the “bacterial growth by T24h compared with positive/untreated control” value is on record as “grew to match or exceed the concentration of the positive control; also recorded: replicate to the same levels as those in the untreated controls”; the “bactericidal effect, overall result in words” value was “much more minor direct bactericidal effect”; the “initial reduction in bacterial concentration” value was in the range of 1 to 2 log10; the “kill curve: evolution of microbial load during time” value is on record as “impact can be seen at T6h (standalone); also recorded: impact can be seen at T4h (standalone)”. For the same molecule, in the test with Bacillus anthracis, the “Minimal Inhibitory Concentration” value is reported as >91,400 μg/mL and the “inhibition of growth, result in words” value is reported as “no observed inhibition of growth”. In addition, in the test on Burkholderia mallei, the “Minimal Inhibitory Concentration” value is listed as “≧91,400 μg/mL” and the “inhibition of growth, result in words” value is listed as “generally did not inhibit B. mallei growth by itself”. In addition, in the test with Yersinia pestis, the “Minimal Inhibitory Concentration” value is listed as >91,400 μg/mL and the “inhibition of growth, result in words” value is recorded as “did not inhibit Y. pestis growth at any concentration by itself”.
